Publication PMC11978755

Legend:
[1] = biological target: Recombinant hemagglutinin-esterase-fusion (HEF) ectodomain of influenza C virus C/Johannesburg/1/1966 (influenza C virus (C/Johannesburg/1/1966)) (UniProt P07975); assay: BLI
[2] = biological target: Recombinant hemagglutinin-esterase-fusion (HEF) ectodomain of influenza D virus D/swine/Oklahoma/1334/2011 (influenza D virus (D/swine/Oklahoma/1334/2011)); assay: BLI

Sequence of UniProt P07975 (P07975 15-630): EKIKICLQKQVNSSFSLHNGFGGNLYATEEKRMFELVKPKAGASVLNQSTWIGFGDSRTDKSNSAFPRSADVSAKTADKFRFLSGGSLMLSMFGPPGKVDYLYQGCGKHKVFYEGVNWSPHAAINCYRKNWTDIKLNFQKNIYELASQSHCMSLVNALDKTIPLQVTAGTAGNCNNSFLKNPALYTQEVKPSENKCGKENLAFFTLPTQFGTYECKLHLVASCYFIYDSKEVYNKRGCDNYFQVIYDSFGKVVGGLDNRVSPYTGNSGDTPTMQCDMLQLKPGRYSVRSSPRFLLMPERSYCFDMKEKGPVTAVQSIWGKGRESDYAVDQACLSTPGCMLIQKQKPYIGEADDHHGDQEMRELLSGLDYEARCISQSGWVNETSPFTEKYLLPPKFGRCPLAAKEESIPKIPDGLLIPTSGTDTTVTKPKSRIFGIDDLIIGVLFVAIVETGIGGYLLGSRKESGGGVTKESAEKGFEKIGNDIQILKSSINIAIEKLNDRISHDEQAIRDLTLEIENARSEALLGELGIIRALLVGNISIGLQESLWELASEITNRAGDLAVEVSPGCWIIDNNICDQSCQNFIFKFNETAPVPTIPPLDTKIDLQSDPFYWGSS

Row | Substance | Kd [1] [µM] | Kd [2] [µM]
1 | CR9114 IgM (pentameric, ten antigen binding sites) (antibody) | > 100 | > 100
2 | CR9114 IgG (human IgG1, wild type) (antibody) | > 100 | > 100
